Measured values as given in publication PMC6372068 (Nature, 2018).

Experiments:
[1] = target: fatty acid synthase (FAS) α subunit, C-terminally fused to GFP (S. cerevisiae) (UniProt P19097); assay: co-IP
[2] = target: T1, fatty acid synthase (FAS) β subunit, C-terminally fused to GFP (S. cerevisiae, UniProt P07149 1-2051); assay: selective ribosome profiling
[3] = target: T1, fatty acid synthase (FAS) β subunit, …; assay: co-IP
[4] = target: T2, methionyl-tRNA synthetase MetRS, C-terminally fused to GFP (S. cerevisiae, UniProt P00958 1-751); assay: selective ribosome profiling
T2 sequence: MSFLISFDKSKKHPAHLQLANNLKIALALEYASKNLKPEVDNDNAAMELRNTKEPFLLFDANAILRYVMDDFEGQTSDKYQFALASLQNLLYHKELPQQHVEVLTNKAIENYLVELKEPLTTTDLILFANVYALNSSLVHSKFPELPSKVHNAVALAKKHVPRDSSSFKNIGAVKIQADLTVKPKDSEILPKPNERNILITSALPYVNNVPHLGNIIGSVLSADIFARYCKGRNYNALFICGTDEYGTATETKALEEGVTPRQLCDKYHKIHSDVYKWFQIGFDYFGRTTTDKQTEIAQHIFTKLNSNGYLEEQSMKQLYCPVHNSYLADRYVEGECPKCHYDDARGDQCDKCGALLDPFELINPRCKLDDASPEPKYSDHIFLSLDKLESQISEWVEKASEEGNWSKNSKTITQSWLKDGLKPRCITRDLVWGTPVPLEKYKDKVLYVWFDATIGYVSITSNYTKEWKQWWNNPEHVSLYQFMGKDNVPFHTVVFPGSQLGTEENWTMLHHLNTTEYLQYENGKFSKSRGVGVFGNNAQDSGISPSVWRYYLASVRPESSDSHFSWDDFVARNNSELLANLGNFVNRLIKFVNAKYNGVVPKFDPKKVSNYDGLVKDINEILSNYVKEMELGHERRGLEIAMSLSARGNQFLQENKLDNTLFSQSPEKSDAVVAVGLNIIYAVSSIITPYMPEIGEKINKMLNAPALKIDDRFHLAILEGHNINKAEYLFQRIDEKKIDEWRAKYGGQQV

T1 sequence (P07149 whole entry, the tested form may be a part): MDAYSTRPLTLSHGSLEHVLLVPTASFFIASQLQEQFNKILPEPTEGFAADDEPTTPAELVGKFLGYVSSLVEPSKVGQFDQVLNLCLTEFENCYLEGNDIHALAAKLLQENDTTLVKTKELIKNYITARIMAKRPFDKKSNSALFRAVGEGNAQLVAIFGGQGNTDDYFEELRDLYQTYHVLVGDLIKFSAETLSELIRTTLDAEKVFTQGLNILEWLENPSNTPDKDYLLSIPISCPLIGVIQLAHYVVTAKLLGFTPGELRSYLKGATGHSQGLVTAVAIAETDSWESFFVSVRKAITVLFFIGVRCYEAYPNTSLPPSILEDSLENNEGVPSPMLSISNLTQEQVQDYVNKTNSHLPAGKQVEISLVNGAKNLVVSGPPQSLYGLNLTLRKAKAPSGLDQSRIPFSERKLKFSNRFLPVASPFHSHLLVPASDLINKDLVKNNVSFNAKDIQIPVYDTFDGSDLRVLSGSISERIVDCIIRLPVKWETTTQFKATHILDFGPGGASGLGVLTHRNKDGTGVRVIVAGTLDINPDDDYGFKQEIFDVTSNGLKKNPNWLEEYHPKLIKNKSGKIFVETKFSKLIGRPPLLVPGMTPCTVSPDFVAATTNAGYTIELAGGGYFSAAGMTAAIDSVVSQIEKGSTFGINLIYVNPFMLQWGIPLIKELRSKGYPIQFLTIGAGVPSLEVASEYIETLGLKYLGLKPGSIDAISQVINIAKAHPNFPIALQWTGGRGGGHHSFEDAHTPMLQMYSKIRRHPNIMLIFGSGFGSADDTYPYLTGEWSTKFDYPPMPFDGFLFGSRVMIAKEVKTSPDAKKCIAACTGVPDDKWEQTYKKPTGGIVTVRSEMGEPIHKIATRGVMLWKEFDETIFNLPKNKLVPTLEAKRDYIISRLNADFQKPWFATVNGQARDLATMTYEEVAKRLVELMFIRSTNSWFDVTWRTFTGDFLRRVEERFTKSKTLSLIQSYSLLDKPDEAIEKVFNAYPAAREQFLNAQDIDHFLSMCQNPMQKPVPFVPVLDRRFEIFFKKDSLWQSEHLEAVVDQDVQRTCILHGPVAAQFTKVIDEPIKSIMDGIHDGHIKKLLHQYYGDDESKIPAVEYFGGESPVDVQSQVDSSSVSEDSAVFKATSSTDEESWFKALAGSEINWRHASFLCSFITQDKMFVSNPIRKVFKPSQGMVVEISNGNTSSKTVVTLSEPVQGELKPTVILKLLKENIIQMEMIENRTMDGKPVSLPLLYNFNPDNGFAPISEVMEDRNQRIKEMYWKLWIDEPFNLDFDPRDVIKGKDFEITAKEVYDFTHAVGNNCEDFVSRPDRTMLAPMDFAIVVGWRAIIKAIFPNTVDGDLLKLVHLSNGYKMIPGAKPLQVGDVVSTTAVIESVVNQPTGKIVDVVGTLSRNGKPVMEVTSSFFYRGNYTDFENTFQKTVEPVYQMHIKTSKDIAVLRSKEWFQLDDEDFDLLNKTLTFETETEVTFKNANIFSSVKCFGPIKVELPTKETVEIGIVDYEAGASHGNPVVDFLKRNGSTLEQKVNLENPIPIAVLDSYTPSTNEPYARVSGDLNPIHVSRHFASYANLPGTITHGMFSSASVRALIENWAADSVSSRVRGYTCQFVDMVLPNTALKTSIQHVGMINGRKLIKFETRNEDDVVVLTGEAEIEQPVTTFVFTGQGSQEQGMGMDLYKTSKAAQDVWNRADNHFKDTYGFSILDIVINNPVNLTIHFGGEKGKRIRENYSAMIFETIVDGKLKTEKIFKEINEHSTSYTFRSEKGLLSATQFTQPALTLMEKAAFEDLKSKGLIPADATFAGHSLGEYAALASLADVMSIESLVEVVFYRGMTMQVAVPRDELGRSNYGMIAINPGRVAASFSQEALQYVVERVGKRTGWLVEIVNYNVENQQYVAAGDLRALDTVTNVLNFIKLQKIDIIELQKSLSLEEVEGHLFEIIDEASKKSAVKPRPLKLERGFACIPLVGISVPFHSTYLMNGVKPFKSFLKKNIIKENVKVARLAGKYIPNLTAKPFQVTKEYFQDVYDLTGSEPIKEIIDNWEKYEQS

FAS β subunit, untagged, of the mature FAS, P07149 1-2051
stoichiometry N [1]: 1

B1: nascent FAS α subunit (ribosome-nascent chain complexes) (natural protein)
chain: MKPEVEQELAHILLTELLAYQFASPVRWIETQDVFLKDFNTERVVEIGPSPTLAGMAQRTLKNKYESYDAALSLHREILCYSKDAKEIYYTPDPSELAAKEEPAKEEAPAPTPAASAPAPAAAAPAPVAAAAPAAAAAEIADEPVKASLLLHVLVAHKLKKSLDSIPMSKTIKDLVGGKSTVQNEILGDLGKEFGTTPEKPEETPLEELAETFQDTFSGALGKQSSSLLSRLISSKMPGGFTITVARKYLQTRWGLPSGRQDGVLLVALSNEPAARLGSEADAKAFLDSMAQKYASIVGVDLSSAASASGAAGAGAAAGAAMIDAGALEEITKDHKVLARQQLQVLARYLKMDLDNGERKFLKEKDTVAELQAQLDYLNAELGEFFVNGVATSFSRKKARTFDSSWNWAKQSLLSLYFEIIHGVLKNVDREVVSEAINIMNRSNDALIKFMEYHISNTDETKGENYQLVKTLGEQLIENCKQVLDVDPVYKDVAKPTGPKTAIDKNGNITYSEEPREKVRKLSQYVQEMALGGPITKESQPTIEEDLTRVYKAISAQADKQDISSSTRVEFEKLYSDLMKFLESSKEIDPSQTTQLAGMDVEDALDKDSTKEVASLPNKSTISKTVSSTIPRETIPFLHLRKKTPAGDWKYDRQLSSLFLDGLEKAAFNGVTFKDKYVLITGAGKGSIGAEVLQGLLQGGAKVVVTTSRFSKQVTDYYQSIYAKYGAKGSTLIVVPFNQGSKQDVEALIEFIYDTEKNGGLGWDLDAIIPFAAIPEQGIELEHIDSKSEFAHRIMLTNILRMMGCVKKQKSARGIETRPAQVILPMSPNHGTFGGDGMYSESKLSLETLFNRWHSESWANQLTVCGAIIGWTRGTGLMSANNIIAEGIEKMGVRTFSQKEMAFNLLGLLTPEVVELCQKSPVMADLNGGLQFVPELKEFTAKLRKELVETSEVRKAVSIETALEHKVVNGNSADAAYAQVEIQPRANIQLDFPELKPYKQVKQIAPAELEGLLDLERVIVVTGFAEVGPWGSARTRWEMEAFGEFSLEGCVEMAWIMGFISYHNGNLKGRPYTGWVDSKTKEPVDDKDVKAKYETSILEHSGIRLIEPELFNGYNPEKKEMIQEVIVEEDLEPFEASKETAEQFKHQHGDKVDIFEIPETGEYSVKLLKGATLYIPKALRFDRLVAGQIPTGWNAKTYGISDDIISQVDPITLFVLVSVVEAFIASGITDPYEMYKYVHVSEVGNCSGSGMGGVSALRGMFKDRFKDEPVQNDILQESFINTMSAWVNMLLISSSGPIKTPVGACATSVESVDIGVETILSGKARICIVGGYDDFQEEGSFEFGNMKATSNTLEEFEHGRTPAEMSRPATTTRNGFMEAQGAGIQIIMQADLALKMGVPIYGIVAMAATATDKIGRSVPAPGKGILTTAREHHSSVKYASPNLNMKYRKRQLVTREAQIKDWVENELEALKLEAEEIPSEDQNEFLLERTREIHNEAESQLRAAQQQWGNDFYKRDPRIAPLRGALATYGLTIDDLGVASFHGTSTKANDKNESATINEMMKHLGRSEGNPVIGVFQKFLTGHPKGAAGAWMMNGALQILNSGIIPGNRNADNVDKILEQFEYVLYPSKTLKTDGVRAVSITSFGFGQKGGQAIVVHPDYLYGAITEDRYNEYVAKVSAREKSAYKFFHNGMIYNKLFVSKEHAPYTDELEEDVYLDPLARVSKDKKSGSLTFNSKNIQSKDSYINANTIETAKMIENMTKEKVSNGGVGVDVELITSINVENDTFIERNFTPQEIEYCSAQPSVQSSFAGTWSAKEAVFKSLGVKSLGGGAALKDIEIVRVNKNAPAVELHGNAKKAAEEAGVTDVKVSISHDDLQAVAVAVSTKK
fold enrichment of selected footprints over total ribosome-protected footprints [2]: ~40 fold

B2: FAS α subunit, untagged, of the mature FAS (natural protein)
chain: MKPEVEQELAHILLTELLAYQFASPVRWIETQDVFLKDFNTERVVEIGPSPTLAGMAQRTLKNKYESYDAALSLHREILCYSKDAKEIYYTPDPSELAAKEEPAKEEAPAPTPAASAPAPAAAAPAPVAAAAPAAAAAEIADEPVKASLLLHVLVAHKLKKSLDSIPMSKTIKDLVGGKSTVQNEILGDLGKEFGTTPEKPEETPLEELAETFQDTFSGALGKQSSSLLSRLISSKMPGGFTITVARKYLQTRWGLPSGRQDGVLLVALSNEPAARLGSEADAKAFLDSMAQKYASIVGVDLSSAASASGAAGAGAAAGAAMIDAGALEEITKDHKVLARQQLQVLARYLKMDLDNGERKFLKEKDTVAELQAQLDYLNAELGEFFVNGVATSFSRKKARTFDSSWNWAKQSLLSLYFEIIHGVLKNVDREVVSEAINIMNRSNDALIKFMEYHISNTDETKGENYQLVKTLGEQLIENCKQVLDVDPVYKDVAKPTGPKTAIDKNGNITYSEEPREKVRKLSQYVQEMALGGPITKESQPTIEEDLTRVYKAISAQADKQDISSSTRVEFEKLYSDLMKFLESSKEIDPSQTTQLAGMDVEDALDKDSTKEVASLPNKSTISKTVSSTIPRETIPFLHLRKKTPAGDWKYDRQLSSLFLDGLEKAAFNGVTFKDKYVLITGAGKGSIGAEVLQGLLQGGAKVVVTTSRFSKQVTDYYQSIYAKYGAKGSTLIVVPFNQGSKQDVEALIEFIYDTEKNGGLGWDLDAIIPFAAIPEQGIELEHIDSKSEFAHRIMLTNILRMMGCVKKQKSARGIETRPAQVILPMSPNHGTFGGDGMYSESKLSLETLFNRWHSESWANQLTVCGAIIGWTRGTGLMSANNIIAEGIEKMGVRTFSQKEMAFNLLGLLTPEVVELCQKSPVMADLNGGLQFVPELKEFTAKLRKELVETSEVRKAVSIETALEHKVVNGNSADAAYAQVEIQPRANIQLDFPELKPYKQVKQIAPAELEGLLDLERVIVVTGFAEVGPWGSARTRWEMEAFGEFSLEGCVEMAWIMGFISYHNGNLKGRPYTGWVDSKTKEPVDDKDVKAKYETSILEHSGIRLIEPELFNGYNPEKKEMIQEVIVEEDLEPFEASKETAEQFKHQHGDKVDIFEIPETGEYSVKLLKGATLYIPKALRFDRLVAGQIPTGWNAKTYGISDDIISQVDPITLFVLVSVVEAFIASGITDPYEMYKYVHVSEVGNCSGSGMGGVSALRGMFKDRFKDEPVQNDILQESFINTMSAWVNMLLISSSGPIKTPVGACATSVESVDIGVETILSGKARICIVGGYDDFQEEGSFEFGNMKATSNTLEEFEHGRTPAEMSRPATTTRNGFMEAQGAGIQIIMQADLALKMGVPIYGIVAMAATATDKIGRSVPAPGKGILTTAREHHSSVKYASPNLNMKYRKRQLVTREAQIKDWVENELEALKLEAEEIPSEDQNEFLLERTREIHNEAESQLRAAQQQWGNDFYKRDPRIAPLRGALATYGLTIDDLGVASFHGTSTKANDKNESATINEMMKHLGRSEGNPVIGVFQKFLTGHPKGAAGAWMMNGALQILNSGIIPGNRNADNVDKILEQFEYVLYPSKTLKTDGVRAVSITSFGFGQKGGQAIVVHPDYLYGAITEDRYNEYVAKVSAREKSAYKFFHNGMIYNKLFVSKEHAPYTDELEEDVYLDPLARVSKDKKSGSLTFNSKNIQSKDSYINANTIETAKMIENMTKEKVSNGGVGVDVELITSINVENDTFIERNFTPQEIEYCSAQPSVQSSFAGTWSAKEAVFKSLGVKSLGGGAALKDIEIVRVNKNAPAVELHGNAKKAAEEAGVTDVKVSISHDDLQAVAVAVSTKK
stoichiometry N [3]: 1

B3: nascent GluRS (ribosome-nascent chain complexes) (natural protein)
chain: MPSTLTINGKAPIVAYAELIAARIVNALAPNSIAIKLVDDKKAPAAKLDDATEDVFNKITSKFAAIFDNGDKEQVAKWVNLAQKELVIKNFAKLSQSLETLDSQLNLRTFILGGLKYSAADVACWGALRSNGMCGSIIKNKVDVNVSRWYTLLEMDPIFGEAHDFLSKSLLELKKSANVGKKKETHKANFEIDLPDAKMGEVVTRFPPEPSGYLHIGHAKAALLNQYFAQAYKGKLIIRFDDTNPSKEKEEFQDSILEDLDLLGIKGDRITYSSDYFQEMYDYCVQMIKDGKAYCDDTPTEKMREERMDGVASARRDRSVEENLRIFTEEMKNGTEEGLKNCVRAKIDYKALNKTLRDPVIYRCNLTPHHRTGSTWKIYPTYDFCVPIVDAIEGVTHALRTIEYRDRNAQYDWMLQALRLRKVHIWDFARINFVRTLLSKRKLQWMVDKDLVGNWDDPRFPTVRGVRRRGMTVEGLRNFVLSQGPSRNVINLEWNLIWAFNKKVIDPIAPRHTAIVNPVKIHLEGSEAPQEPKIEMKPKHKKNPAVGEKKVIYYKDIVVDKDDADVINVDEEVTLMDWGNVIITKKNDDGSMVAKLNLEGDFKKTKHKLTWLADTKDVVPVDLVDFDHLITKDRLEEDESFEDFLTPQTEFHTDAIADLNVKDMKIGDIIQFERKGYYRLDALPKDGKPYVFFTIPDGKSVNKYGAKK
fold enrichment in footprints [4]: ≥ 30 fold
